In patent US20150299313A1 (Chugai, published 2015):
Residue numbers refer to the chain shown, from its start.

T1: soluble human IL-6 receptor (human, UniProt P08887 20-357)
T1 construct: also called hsIL-6R; hIL6R
T1 sequence: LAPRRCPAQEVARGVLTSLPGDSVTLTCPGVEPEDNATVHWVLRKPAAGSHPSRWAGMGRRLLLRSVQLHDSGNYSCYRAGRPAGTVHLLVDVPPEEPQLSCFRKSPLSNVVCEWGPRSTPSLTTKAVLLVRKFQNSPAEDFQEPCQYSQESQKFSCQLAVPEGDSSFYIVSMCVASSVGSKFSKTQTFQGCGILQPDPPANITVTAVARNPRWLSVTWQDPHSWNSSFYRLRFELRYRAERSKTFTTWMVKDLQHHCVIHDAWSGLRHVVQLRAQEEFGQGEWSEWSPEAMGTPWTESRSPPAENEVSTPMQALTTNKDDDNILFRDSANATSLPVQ

B1: GL5-IgG1_kif+ (antibody)
heavy: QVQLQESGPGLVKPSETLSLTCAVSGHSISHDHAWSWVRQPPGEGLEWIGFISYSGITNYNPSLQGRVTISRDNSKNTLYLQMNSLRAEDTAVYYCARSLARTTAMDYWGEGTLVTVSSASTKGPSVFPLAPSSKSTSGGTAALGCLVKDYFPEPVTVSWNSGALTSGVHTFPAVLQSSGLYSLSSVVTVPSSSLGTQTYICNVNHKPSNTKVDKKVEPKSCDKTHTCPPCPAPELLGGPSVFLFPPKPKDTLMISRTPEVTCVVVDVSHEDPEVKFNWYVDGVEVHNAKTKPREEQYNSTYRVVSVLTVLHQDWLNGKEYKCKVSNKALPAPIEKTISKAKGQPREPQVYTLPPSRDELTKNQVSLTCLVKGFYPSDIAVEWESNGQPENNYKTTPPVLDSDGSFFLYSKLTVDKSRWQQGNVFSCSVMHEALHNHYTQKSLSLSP
light: DIQMTQSPSSLSASVGDNVTITCNASTDISSHLNWYQQKPGKAPELLIYYGSHLLSGVPSRFSGSGSGTDFTFTISSLEAEDAATYYCGQGNRLPYTFGQGTKVEIERTVAAPSVFIFPPSDEQLKSGTASVVCLLNNFYPREAKVQWKVDNALQSGNSQESVTEQDSKDSTYSLSSTLTLSKADYEKHKVYACEVTHQGLSSPVTKSFNRGEC
modifications: two high mannose N-linked sugar chains (Man6-Man9 with Man9) on the light chain; high mannose sugar chain (expressed in the presence of kifunensine)
notes: Expressed with 10 ug/mL kifunensine in the culture; also called GL5-G1_kif+
B2: GL1-IgG1_kif+ (antibody)
heavy: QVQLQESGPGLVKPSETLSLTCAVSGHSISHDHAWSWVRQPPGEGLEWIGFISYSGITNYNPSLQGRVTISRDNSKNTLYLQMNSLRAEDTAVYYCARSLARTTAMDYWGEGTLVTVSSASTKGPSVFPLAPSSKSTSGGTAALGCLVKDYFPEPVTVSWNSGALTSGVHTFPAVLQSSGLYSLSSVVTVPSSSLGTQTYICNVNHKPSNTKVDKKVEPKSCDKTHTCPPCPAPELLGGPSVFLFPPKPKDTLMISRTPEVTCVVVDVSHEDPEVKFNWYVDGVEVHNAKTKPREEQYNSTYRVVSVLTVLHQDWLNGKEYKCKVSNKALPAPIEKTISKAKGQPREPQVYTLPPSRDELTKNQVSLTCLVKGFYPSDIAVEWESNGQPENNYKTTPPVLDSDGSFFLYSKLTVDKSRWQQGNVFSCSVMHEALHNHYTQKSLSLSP
light: B1 light with N18S, N24Q
modifications: high mannose sugar chain (expressed in the presence of kifunensine)
notes: Expressed with 10 ug/mL kifunensine in the culture; also called GL1-G1_kif+
B3: H54/L28-IgG1 (antibody, V domains shown)
VH: QVQLQESGPGLVKPSETLSLTCAVSGYSISDDQAWSWVRQPPGEGLEWIGYISYSGITNYNPSLKGRVTISRDTSKNQFSLKLSSVTAADTAAYYCARSLARTTAMDYWGEGTLVTVSS
VL: DIQMTQSPSSLSASVGDSVTITCQASQDISSYLNWYQQKPGKAPELLIYYGSELHSGVPSRFSGSGSGTDFTFTISSLEAEDAATYYCQQGNSLPYTFGQGTKVEIER
notes: Humanized anti-IL-6 receptor antibody without pH or Ca dependency; not treated with sialidase; also called H54/L28-IgG1-SA (+); H54L28-IgG1-SA (+)
B4: GL5-IgG1-SA (-) (antibody)
heavy: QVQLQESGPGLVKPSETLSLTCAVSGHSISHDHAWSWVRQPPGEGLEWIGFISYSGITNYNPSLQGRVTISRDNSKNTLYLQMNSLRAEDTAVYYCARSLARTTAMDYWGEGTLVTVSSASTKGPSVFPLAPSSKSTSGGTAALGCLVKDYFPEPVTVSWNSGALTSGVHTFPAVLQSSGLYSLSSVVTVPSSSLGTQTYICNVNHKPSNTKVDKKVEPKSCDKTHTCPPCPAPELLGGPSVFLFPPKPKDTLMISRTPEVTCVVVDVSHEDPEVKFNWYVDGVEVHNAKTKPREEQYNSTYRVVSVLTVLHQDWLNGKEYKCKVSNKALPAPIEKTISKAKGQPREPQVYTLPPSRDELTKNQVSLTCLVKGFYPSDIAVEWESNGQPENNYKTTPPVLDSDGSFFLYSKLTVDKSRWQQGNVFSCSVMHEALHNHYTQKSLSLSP
light: B1 light
modifications: N-linked sugar chains at two sites of the light chain (Asn 20 and Asn 24, Kabat), sialic acid removed; N-linked sugar chain at Asn 297 (EU numbering), terminal sialic acid removed
notes: Treated with sialidase
B5: GL1-IgG1-SA (+) (antibody)
heavy: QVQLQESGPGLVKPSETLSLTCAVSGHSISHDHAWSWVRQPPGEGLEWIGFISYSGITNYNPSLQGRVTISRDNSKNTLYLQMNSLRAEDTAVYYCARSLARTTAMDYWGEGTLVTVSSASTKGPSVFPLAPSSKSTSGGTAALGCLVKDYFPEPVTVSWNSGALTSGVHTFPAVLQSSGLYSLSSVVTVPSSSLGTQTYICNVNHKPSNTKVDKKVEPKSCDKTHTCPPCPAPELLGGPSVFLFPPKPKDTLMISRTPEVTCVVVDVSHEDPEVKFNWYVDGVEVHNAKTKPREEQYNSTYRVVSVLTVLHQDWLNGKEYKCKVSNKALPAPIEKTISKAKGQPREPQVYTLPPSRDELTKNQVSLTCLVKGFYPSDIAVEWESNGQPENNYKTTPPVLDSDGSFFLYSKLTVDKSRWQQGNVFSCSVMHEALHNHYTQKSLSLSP
light: B1 light with N18S, N24Q
modifications: N-linked sugar chain at Asn 297 (EU numbering), sialic acid not removed
notes: Same chains as GL1-IgG1-SA (-), not treated with sialidase; also called Fv4-IgG1
B6: GL1-IgG1-SA (-) (antibody)
heavy: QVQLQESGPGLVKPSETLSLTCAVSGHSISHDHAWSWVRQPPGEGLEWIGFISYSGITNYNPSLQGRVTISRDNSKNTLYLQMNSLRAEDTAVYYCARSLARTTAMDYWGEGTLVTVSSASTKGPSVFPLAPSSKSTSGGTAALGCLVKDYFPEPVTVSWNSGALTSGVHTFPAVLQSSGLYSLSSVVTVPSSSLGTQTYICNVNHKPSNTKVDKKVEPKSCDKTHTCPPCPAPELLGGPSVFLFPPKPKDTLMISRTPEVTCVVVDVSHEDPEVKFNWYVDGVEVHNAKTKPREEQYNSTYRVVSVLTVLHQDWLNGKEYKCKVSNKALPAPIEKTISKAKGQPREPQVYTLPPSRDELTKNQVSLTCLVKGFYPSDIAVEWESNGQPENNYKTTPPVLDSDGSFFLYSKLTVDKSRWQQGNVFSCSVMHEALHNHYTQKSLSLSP
light: B1 light with N18S, N24Q
modifications: N-linked sugar chain at Asn 297 (EU numbering), terminal sialic acid removed
notes: also called GL1-IgG1 treated with neuraminidase/sialidase; Fv4-IgG1
B7: GL1-M111-SA (-) (antibody, human IgG1, kappa, N297A)
heavy: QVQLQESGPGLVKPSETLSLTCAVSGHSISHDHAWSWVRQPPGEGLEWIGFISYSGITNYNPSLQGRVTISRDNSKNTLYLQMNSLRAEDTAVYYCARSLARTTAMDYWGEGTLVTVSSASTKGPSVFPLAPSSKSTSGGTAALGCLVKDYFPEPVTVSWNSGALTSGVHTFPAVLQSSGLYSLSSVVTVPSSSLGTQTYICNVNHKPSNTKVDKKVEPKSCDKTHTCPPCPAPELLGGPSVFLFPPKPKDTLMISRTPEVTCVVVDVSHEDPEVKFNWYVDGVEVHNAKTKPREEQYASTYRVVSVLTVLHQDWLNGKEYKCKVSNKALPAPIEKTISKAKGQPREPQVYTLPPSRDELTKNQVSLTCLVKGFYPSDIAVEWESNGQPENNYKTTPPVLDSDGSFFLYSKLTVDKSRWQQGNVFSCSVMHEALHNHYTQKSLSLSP
light: B1 light with N18S, N24Q
notes: No sugar chain on heavy or light chain; treated with neuraminidase
B8: GL5-M111-SA (-) (antibody, human IgG1, kappa, N297A)
heavy: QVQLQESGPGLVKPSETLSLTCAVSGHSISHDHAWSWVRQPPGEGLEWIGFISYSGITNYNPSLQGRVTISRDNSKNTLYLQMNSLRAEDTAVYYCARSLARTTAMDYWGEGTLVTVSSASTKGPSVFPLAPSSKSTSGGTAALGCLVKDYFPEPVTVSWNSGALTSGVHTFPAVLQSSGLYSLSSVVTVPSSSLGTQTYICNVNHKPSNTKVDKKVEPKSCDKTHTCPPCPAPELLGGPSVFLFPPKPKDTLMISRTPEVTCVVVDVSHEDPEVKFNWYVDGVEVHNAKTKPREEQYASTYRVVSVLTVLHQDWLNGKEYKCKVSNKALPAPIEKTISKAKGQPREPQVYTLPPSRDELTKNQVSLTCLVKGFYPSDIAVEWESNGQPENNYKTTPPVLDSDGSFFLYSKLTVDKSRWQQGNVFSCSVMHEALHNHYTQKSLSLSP
light: B1 light
modifications: two N-linked complex sugar chains (G2/G3/G4 combinations) at the sites introduced by Thr 20 to Asn and Gln 24 to Asn (Kabat), sialic acid removed, terminal galactose exposed
notes: Treated with neuraminidase
B9: GL8-M111-SA (-) (antibody, human IgG1, kappa, N297A)
heavy: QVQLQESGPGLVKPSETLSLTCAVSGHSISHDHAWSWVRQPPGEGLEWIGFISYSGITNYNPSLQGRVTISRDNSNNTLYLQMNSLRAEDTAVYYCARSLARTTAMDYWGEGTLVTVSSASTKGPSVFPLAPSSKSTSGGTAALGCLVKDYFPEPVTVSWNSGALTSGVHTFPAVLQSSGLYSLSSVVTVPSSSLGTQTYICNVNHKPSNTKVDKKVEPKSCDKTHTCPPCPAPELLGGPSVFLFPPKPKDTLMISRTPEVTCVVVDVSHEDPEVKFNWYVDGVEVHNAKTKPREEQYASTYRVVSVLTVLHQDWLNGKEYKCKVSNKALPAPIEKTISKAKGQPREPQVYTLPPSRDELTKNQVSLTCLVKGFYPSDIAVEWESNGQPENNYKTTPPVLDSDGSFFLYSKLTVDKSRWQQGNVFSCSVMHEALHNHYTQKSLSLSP
light: B1 light with N18S, T20N, N24Q
modifications: N-linked complex sugar chain at the site introduced by Thr 20 to Asn (Kabat), sialic acid removed; N-linked complex sugar chain at the site introduced by Lys 75 to Asn (Kabat), sialic acid removed
notes: Treated with neuraminidase
B10: GL2-M111-SA (-) (antibody, human IgG1, kappa, N297A)
heavy: not shown
light: B1 light with N24Q
modifications: N-linked complex sugar chain at the site introduced by Ser 18 to Asn (Kabat), sialic acid removed, terminal galactose exposed
notes: Treated with neuraminidase
B11: GL4-M111-SA (-) (antibody, human IgG1, kappa, N297A)
heavy: not shown
light: B1 light with N18S
modifications: N-linked complex sugar chain at the site introduced by Gln 24 to Asn (Kabat), sialic acid removed, terminal galactose exposed
notes: Treated with neuraminidase
B12: GL6-M111-SA (-) (antibody, human IgG1, kappa, N297A)
heavy: not shown
light: B1 light with N18S, N24Q
modifications: N-linked complex sugar chain at the site introduced by Lys 75 to Asn (Kabat), sialic acid removed, terminal galactose exposed
notes: Treated with neuraminidase
B13: GL9-M111-SA (-) (antibody, human IgG1, kappa, N297A)
heavy: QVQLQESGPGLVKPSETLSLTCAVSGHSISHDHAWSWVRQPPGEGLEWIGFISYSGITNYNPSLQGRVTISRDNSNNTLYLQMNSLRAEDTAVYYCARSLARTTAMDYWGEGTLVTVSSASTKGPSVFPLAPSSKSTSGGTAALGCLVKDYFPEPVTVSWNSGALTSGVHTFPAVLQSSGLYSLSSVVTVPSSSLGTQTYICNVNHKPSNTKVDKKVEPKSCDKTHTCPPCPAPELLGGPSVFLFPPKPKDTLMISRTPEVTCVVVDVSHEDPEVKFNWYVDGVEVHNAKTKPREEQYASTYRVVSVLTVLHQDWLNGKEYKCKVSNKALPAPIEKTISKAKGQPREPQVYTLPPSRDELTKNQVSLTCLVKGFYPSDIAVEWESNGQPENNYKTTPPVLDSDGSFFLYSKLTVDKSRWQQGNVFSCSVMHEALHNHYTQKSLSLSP
light: B1 light with N18S
modifications: N-linked complex sugar chain at the site introduced by Gln 24 to Asn (Kabat), sialic acid removed; N-linked complex sugar chain at the site introduced by Lys 75 to Asn (Kabat), sialic acid removed
notes: Treated with neuraminidase
B14: GL10-M111-SA (-) (antibody, human IgG1, kappa, N297A)
heavy: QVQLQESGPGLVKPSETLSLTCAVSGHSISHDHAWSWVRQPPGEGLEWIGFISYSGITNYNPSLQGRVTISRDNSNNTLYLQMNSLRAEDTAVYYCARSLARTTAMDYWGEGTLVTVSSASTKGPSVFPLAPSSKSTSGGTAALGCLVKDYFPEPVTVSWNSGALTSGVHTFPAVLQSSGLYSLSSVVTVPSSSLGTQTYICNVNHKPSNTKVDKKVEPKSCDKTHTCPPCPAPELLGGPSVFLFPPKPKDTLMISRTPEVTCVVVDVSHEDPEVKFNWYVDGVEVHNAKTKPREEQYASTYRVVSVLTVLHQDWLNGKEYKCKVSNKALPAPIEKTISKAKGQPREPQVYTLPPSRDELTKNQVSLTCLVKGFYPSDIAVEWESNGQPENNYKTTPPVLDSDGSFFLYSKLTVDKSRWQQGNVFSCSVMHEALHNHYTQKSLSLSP
light: B1 light
modifications: two N-linked complex sugar chains at the sites introduced by Thr 20 to Asn and Gln 24 to Asn (Kabat), sialic acid removed; N-linked complex sugar chain at the site introduced by Lys 75 to Asn (Kabat), sialic acid removed
notes: Treated with neuraminidase
B15: GL7-M111-SA (-) (antibody, human IgG1, kappa, N297A)
heavy: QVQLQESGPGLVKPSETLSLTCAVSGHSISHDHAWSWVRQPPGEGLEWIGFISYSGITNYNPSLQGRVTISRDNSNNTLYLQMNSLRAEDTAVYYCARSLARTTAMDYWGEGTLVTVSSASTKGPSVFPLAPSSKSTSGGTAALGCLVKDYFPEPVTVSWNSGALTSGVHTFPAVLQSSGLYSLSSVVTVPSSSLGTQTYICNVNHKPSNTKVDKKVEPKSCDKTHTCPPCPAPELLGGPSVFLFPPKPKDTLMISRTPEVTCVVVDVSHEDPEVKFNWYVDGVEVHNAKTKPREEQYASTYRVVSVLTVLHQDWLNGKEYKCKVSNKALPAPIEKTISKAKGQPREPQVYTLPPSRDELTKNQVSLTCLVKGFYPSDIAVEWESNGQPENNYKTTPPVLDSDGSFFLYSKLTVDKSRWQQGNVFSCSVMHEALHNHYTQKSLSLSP
light: B1 light with N24Q
modifications: N-linked complex sugar chain at the site introduced by Ser 18 to Asn (Kabat), sialic acid removed; N-linked complex sugar chain at the site introduced by Lys 75 to Asn (Kabat), sialic acid removed
notes: Treated with neuraminidase
B16: GL3-M111-SA (-) (antibody, human IgG1, kappa, N297A)
heavy: not shown
light: B1 light with N18S, T20N, N24Q
modifications: N-linked complex sugar chain at the site introduced by Thr 20 to Asn (Kabat), sialic acid removed, terminal galactose exposed
notes: Treated with neuraminidase

Target: T1, soluble human IL-6 receptor
Experiment: SPR (Biacore T100), antibody captured on anti-human IgG F(ab')2, human IL-6 receptor as analyte, 37 C, pH 6.0
Experimental: (§1) Using Biacore T100 (GE Healthcare), kinetic analysis of antigen-antibody reactions between each of GL1-IgG1_kif+ and GL5-IgG1_kif+ and a human IL-6 receptor was performed. An appropriate amount of Anti-Human IgG (γ-chain specific) F(ab′)2 fragment antibody produced in goat (Sigma) was immobilized onto Sensor chip CM5 (GE Healthcare) by the amine coupling method and then a target antibody was allowed to capture. Subsequently, a human IL-6 receptor dilution solution and a running buffer (a blank) were injected at a flow rate of 20 μL/min for 3 minutes to allow the human IL-6 receptor to interact with the antibody captured on the sensor chip. Either one of two types of running buffers (pH 7.4 and pH 6.0 containing 10 mmol/L ACES, 150 mmol/L NaCl, and 0.05% (w/v) Tween20) was used, and each buffer was employed for dilution of IL-6R. Thereafter, a running buffer was fed at a flow rate 20 μL/min for 5 minutes. After dissociation of the IL-6 receptor was observed, a 10 mmol/L Glycine-HCl (pH 1.5) solution was injected at a flow rate of 30 μL/min for 5 seconds. This procedure was repeated five times to regenerate the sensor chip. All samples were measured at 37° C. […] From the values, KD (M) of each antibody to a human IL-6 receptor was calculated. Individual parameters were calculated by use of Biacore T100 Evaluation Software (GE Healthcare).

Binder | Kd
B1 | 66 nM
B2 | 71 nM

Target: T1, soluble human IL-6 receptor
Experiment: as above
Remark: another data set of the same source
Experimental: (§2) GL1-IgG1-SA (−) and GL5-IgG1-SA (−) were treated with sialidase and then used as measurement samples. An appropriate amount of Anti-Human IgG (γ-chain specific), F(ab′)2 fragment antibody produced in goat (Sigma) was immobilized onto Sensor chip CM5 (GE Healthcare) in accordance with the amine coupling method and then a target antibody was allowed to capture. Subsequently, a human IL-6 receptor dilution solution and a running buffer (a blank) were injected at a flow rate of 20 μL/min for 3 minutes to allow the human IL-6 receptor to interact with the antibody captured on the sensor chip. Either one of two types of running buffers pH 7.4 and pH 6.0 containing 10 mmol/L ACES, 150 mmol/L NaCl, and 0.05% (w/v) Tween20 was used and each buffer was employed for dilution of IL-6R. Thereafter, a running buffer was fed at a flow rate 20 μL/min for 5 minutes. After dissociation of the IL-6 receptor was observed, 10 mmol/L Glycine-HCl (pH 1.5) was injected at a flow rate of 30 μL/min for 5 seconds. This procedure was repeated five times to regenerate the sensor chip. All samples were measured at 37° C. From the sensorgram obtained by measurement, an association constant, ka (1/Ms) and a dissociation constant kd (1/s) as kinetics parameters were computationally obtained. From the values, KD (M) of each antibody to a human IL-6 receptor was calculated. Individual parameters were calculated by use of Biacore T100 Evaluation Software (GE Healthcare).

Binder | Kd
B3 | 3.4 nM
B4 | 52 nM
B5 | 66 nM
B6 | 61 nM

Target: T1, soluble human IL-6 receptor
Experiment: SPR (Biacore T100), antibody captured on anti-human IgG F(ab')2, human IL-6 receptor as analyte, 37 C, pH 7.4
Experimental: as §1

Binder | Kd
B1 | 1.4 nM
B2 | 1.5 nM

Target: T1, soluble human IL-6 receptor
Experiment: as above
Remark: another data set of the same source
Experimental: as §2

Binder | Kd
B3 | 3.9 nM
B4 | 1.9 nM
B5 | 2.1 nM
B6 | 2.2 nM

Target: T1, soluble human IL-6 receptor
Experiment: SPR (Biacore T100), antibody captured on protein A, human IL-6 receptor as analyte, 37 C, pH 6.0
Experimental: (§3) Kinetic analysis on the antigen-antibody reaction between each of GL1-IgG1-SA (−), GL1-M111-SA (−), GL2-M111-SA (−), GL3-M111-SA (−), GL4-M111-SA (−), GL5-M111-SA (−), GL6-M111-SA (−), GL7-M111-SA (−), GL8-M111-SA (−), GL9-M111-SA (−), GL10-M111-SA (−) and a human IL-6 receptor was performed by use of Biacore T100 (GE Healthcare). An appropriate amount of protein A (Invitrogen) was immobilized onto Sensor chip CM5 (GE Healthcare) by the amine coupling method and then a target antibody was allowed to capture. Subsequently, a human IL-6 receptor dilution solution and a running buffer (a blank) were injected at a flow rate of 20 μL/min for 3 minutes to allow the human IL-6 receptor to interact with the antibody captured on the sensor chip. Either one of two types of running buffers pH 7.4 and pH 6.0 containing 10 mmol/L ACES, 150 mmol/L NaCl, and 0.05% (w/v) Tween20 was used and each buffer was employed for dilution of IL-6R. Thereafter, the running buffer was fed at a flow rate of 20 μL/min for 5 minutes. After observation of dissociation of the IL-6 receptor, 10 mmol/L Glycine-HCl (pH 1.5) was injected at a flow rate of 30 μL/min for 30 seconds to regenerate the sensor chip. All samples were measured at 37° C. From the sensorgram obtained by measurement, an association constant, ka (1/Ms) and a dissociation constant, kd (1/s) as kinetics parameters were computationally obtained. Based on the obtained values, KD (M) of each antibody to a human IL-6 receptor was calculated. Individual parameters were calculated by use of Biacore T100 Evaluation Software (GE Healthcare).

Binder | Kd
B7 | 150 nM
B8 | 99 nM
B9 | 110 nM
B10 | 110 nM
B11 | 140 nM
B12 | 110 nM
B13 | 110 nM
B14 | 130 nM
B15 | 150 nM
B6 | 150 nM
B16 | 80 nM

Target: T1, soluble human IL-6 receptor
Experiment: SPR (Biacore T100), antibody captured on anti-human IgG F(ab')2, human IL-6 receptor as analyte, 37 C, pH 6.0
Remark: another data set of the same source
Experimental: (§4) Then, kinetic analysis of an antigen-antibody reaction between each of GL1-M111-SA (−) and GL5-M111-SA (−) and a human IL-6 receptor was performed by using Biacore T100 (GE Healthcare). In both cases, measurement was performed by using an antibody treated with sialidase as a sample. An appropriate amount of Anti-Human IgG (γ-chain specific) F(ab′)2 fragment antibody produced in goat (Sigma) was immobilized onto Sensor chip CM5 (GE Healthcare) in accordance with the amine coupling method and then a target antibody was allowed to capture. Subsequently, a human IL-6 receptor dilution solution and a running buffer (a blank) were injected at a flow rate of 20 μL/min for 3 minutes to allow the human IL-6 receptor to interact with the antibody captured on the sensor chip. Either one of two types of running buffers pH 7.4 and pH 6.0 containing 10 mmol/L ACES, 150 mmol/L NaCl, and 0.05% (w/v) Tween20 was used, and each buffer was employed for dilution of IL-6R. Thereafter, a running buffer was fed at a flow rate 20 μL/min for 5 minutes. After dissociation of the IL-6 receptor was observed, 10 mmol/L Glycine-HCl (pH 1.5) was injected at a flow rate 30 μL/min for 5 seconds. […] All samples were measured at 37° C. […] From the values, KD (M) of each antibody to a human IL-6 receptor was calculated. Individual parameters were calculated by use of Biacore T100 Evaluation Software (GE Healthcare).

Binder | Kd
B7 | 66 nM
B8 | 57 nM

Target: T1, soluble human IL-6 receptor
Experiment: SPR (Biacore T100), antibody captured on protein A, human IL-6 receptor as analyte, 37 C, pH 7.4
Experimental: as §3

Binder | Kd
B7 | 1.8 nM
B8 | 1.5 nM
B9 | 2 nM
B10 | 1.6 nM
B11 | 1.7 nM
B12 | 2.6 nM
B13 | 2.3 nM
B14 | 2.4 nM
B15 | 2.4 nM
B6 | 1.8 nM
B16 | 1.3 nM

Target: T1, soluble human IL-6 receptor
Experiment: SPR (Biacore T100), antibody captured on anti-human IgG F(ab')2, human IL-6 receptor as analyte, 37 C, pH 7.4
Remark: another data set of the same source
Experimental: as §4

Binder | Kd
B7 | 2 nM
B8 | 1.9 nM
